The target in test [1] is T1, human FcγRIIb extracellular domain with C-terminal His tag (human, UniProt P31994 43-217).
T1 construct: extracellular domain; also called FcgRIIb; 2b; not shown: His tag attached to the C terminus
T1 sequence (looked up): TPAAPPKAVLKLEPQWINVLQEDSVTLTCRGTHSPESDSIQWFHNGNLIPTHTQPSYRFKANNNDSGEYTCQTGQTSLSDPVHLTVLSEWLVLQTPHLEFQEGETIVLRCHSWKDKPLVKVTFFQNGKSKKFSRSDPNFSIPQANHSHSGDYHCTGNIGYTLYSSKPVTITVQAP
In words: SPR (Biacore T100), antibody captured on antigen peptide chip, FcγRIIb as analyte; relative binding. Here is the method: (§1) Analysis of interaction between objective antibody and the FcγR was carried out using Biacore T100 (GE Healthcare). HBS-EP+ (GE Healthcare) was used as the running buffer, and the measurement temperature was set to 25° C. Chips produced by immobilizing the antigen peptide by the amine coupling method to a Series S Sencor Chip CM5 (GE Healthcare), or alternatively, chips produced by allowing preliminarily biotinylated antigen peptides to interact with and immobilize onto a Series S Sensor Chip SA (certified) (GE Healthcare) were used. Antibodies of interest were captured onto an antigen peptide-immobilized chip, and allowed to interact to each FcγR diluted with running buffer. To regenerate and repeatedly use the chip, the antibodies captured on the chip were washed off by reacting 10 mM glycine-HCl, pH 1.5.
For orientation: Surface plasmon resonance follows binding to a sensor surface in real time, without labels.

Another test deals with T2, FcγRIa (human, UniProt P12314 16-292).
T2 construct: extracellular domain; Soluble extracellular domain with C-terminal His tag, used as analyte; also called FcgRI; CD64; not shown: His tag at the C terminus
In words: SPR (Biacore), captured antibody, FcγR as analyte, relative binding. Here is the method:
The heterodimerized antibodies He Abs in which one of the H chains was introduced with an alteration were assayed for their binding activities to each activating FcγR and inhibitory FcγR according to the method described in Example 4. […] The activating FcγRs in FIGS. 26, 27, 28, and 29 are FcγRIa, FcγRIIa (R), FcγRIIa (H), and FcγRIIIa, respectively.
as §1

T2 sequence (P12314 16-292): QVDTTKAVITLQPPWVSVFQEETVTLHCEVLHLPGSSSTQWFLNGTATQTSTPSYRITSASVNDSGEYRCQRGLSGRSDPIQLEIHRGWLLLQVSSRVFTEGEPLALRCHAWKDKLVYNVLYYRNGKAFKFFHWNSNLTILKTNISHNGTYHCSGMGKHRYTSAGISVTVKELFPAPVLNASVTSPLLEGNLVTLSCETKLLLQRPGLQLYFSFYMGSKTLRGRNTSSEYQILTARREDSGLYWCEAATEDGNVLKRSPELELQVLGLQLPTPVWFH

B1: GpH7-A5/GpH7-B3 variant L328_04F/GpL16-k0 (He Ab) (antibody, human IgG1, kappa)
heavy 1: not shown
heavy 2: not shown
light: DIVMTQSPLSLPVTPGEPASISCQASESLVHSNRNTYLHWYLQKPGQSPQLLIYKVSNRFSGVPDRFSGSGSGTDFTLKISRVEAEDVGVYYCSQNTHVPPTFGQGTKVEIERTVAAPSVFIFPPSDEQLKSGTASVVCLLNNFYPREAKVQWKVDNALQSGNSQESVTEQDSKDSTYSLSSTLTLSKADYEKHKVYACEVTHQGLSSPVTKSFNRGEC
notes: Anti-glypican-3 IgG1; mutation only in the GpH7-B3-derived H chain; also called L328F heterodimerized antibody
For B1, the He/Con_2b in test [1] is 219 % of control GpH7-A5/GpH7-B3/GpL16-k0 (=100).

B2: GpH7-A5/GpH7-B3 variant S239_01G/GpL16-k0 (He Ab) (antibody, human IgG1, kappa)
heavy 1: not shown
heavy 2: not shown
light: B1 light
notes: Anti-glypican-3 IgG1; mutation only in the GpH7-B3-derived H chain; also called S239G heterodimerized antibody
Regarding B2, the He/Con_2b in test [1] is 144 % of control GpH7-A5/GpH7-B3/GpL16-k0 (=100).

B3: GpH7-A5/GpH7-B3 variant S267_14T/GpL16-k0 (He Ab) (antibody, human IgG1, kappa)
heavy 1: not shown
heavy 2: not shown
light: B1 light
notes: Anti-glypican-3 IgG1; mutation only in the GpH7-B3-derived H chain; also called S267T heterodimerized antibody
Regarding B3, the He/Con_2b in test [1] is 104 % of control GpH7-A5/GpH7-B3/GpL16-k0 (=100).

B4: GpH7-A5/GpH7-B3 variant S337_14T/GpL16-k0 (He Ab) (antibody, human IgG1, kappa)
heavy 1: not shown
heavy 2: not shown
light: B1 light
notes: Anti-glypican-3 IgG1; mutation only in the GpH7-B3-derived H chain; also called S337T heterodimerized antibody
Turning to B4, the He/Con_2b in test [1] is 105 % of control GpH7-A5/GpH7-B3/GpL16-k0 (=100).

B5: GpH7-A5/GpH7-B3 variant L328_06M/GpL16-k0 (He Ab) (antibody, human IgG1, kappa)
heavy 1: not shown
heavy 2: not shown
light: B1 light
notes: Anti-glypican-3 IgG1; mutation only in the GpH7-B3-derived H chain; also called L328M heterodimerized antibody
For the molecule B5, the He/Con_2b in test [1] is 142 % of control GpH7-A5/GpH7-B3/GpL16-k0 (=100).

B6: GpH7-A5/GpH7-B3 variant S298_08L/GpL16-k0 (He Ab) (antibody, human IgG1, kappa)
heavy 1: not shown
heavy 2: not shown
light: B1 light
notes: Anti-glypican-3 IgG1; mutation only in the GpH7-B3-derived H chain; also called S298L heterodimerized antibody
For the molecule B6, in test [1], the He/Con_2b was 108 % of control GpH7-A5/GpH7-B3/GpL16-k0 (=100).

B7: GpH7-A5/GpH7-B3 variant L328_14T/GpL16-k0 (He Ab) (antibody, human IgG1, kappa)
heavy 1: not shown
heavy 2: not shown
light: B1 light
notes: Anti-glypican-3 IgG1; mutation only in the GpH7-B3-derived H chain; also called L328T heterodimerized antibody
Take B7: the He/Con_2b in test [1] is 141 % of control GpH7-A5/GpH7-B3/GpL16-k0 (=100).

B8: GpH7-A5/GpH7-B3 variant L328_15Y/GpL16-k0 (He Ab) (antibody, human IgG1, kappa)
heavy 1: not shown
heavy 2: not shown
light: B1 light
notes: Anti-glypican-3 IgG1; mutation only in the GpH7-B3-derived H chain; also called L328Y heterodimerized antibody
For the molecule B8, in test [1], the He/Con_2b was 193 % of control GpH7-A5/GpH7-B3/GpL16-k0 (=100).

B9: GpH7-A5/GpH7-B3 variant T335_04F/GpL16-k0 (He Ab) (antibody, human IgG1, kappa)
heavy 1: not shown
heavy 2: not shown
light: B1 light
notes: Anti-glypican-3 IgG1; mutation only in the GpH7-B3-derived H chain; also called T335F heterodimerized antibody
As to B9, the He/Con_2b in test [1] was 103 % of control GpH7-A5/GpH7-B3/GpL16-k0 (=100).

B10: GpH7-A5/GpH7-B3 variant P271_01G/GpL16-k0 (He Ab) (antibody, human IgG1, kappa)
heavy 1: not shown
heavy 2: not shown
light: B1 light
notes: Anti-glypican-3 IgG1; mutation only in the GpH7-B3-derived H chain; also called P271G heterodimerized antibody
Take B10: the He/Con_2b in test [1] was 193 % of control GpH7-A5/GpH7-B3/GpL16-k0 (=100).

B11: GpH7-A5/GpH7-B3 variant S267_02A/GpL16-k0 (He Ab) (antibody, human IgG1, kappa)
heavy 1: not shown
heavy 2: not shown
light: B1 light
notes: Anti-glypican-3 IgG1; mutation only in the GpH7-B3-derived H chain; also called S267A heterodimerized antibody
Consider B11, for which, in test [1], the He/Con_2b is 243 % of control GpH7-A5/GpH7-B3/GpL16-k0 (=100).

B12: GpH7-A5/GpH7-B3 variant A327_12R/GpL16-k0 (antibody, human IgG1, kappa)
heavy 1: not shown
heavy 2: not shown
light: B1 light
notes: He Ab: mutation in one H chain only; also called He Ab
On to B12, for which the He/Con_1a with FcγRIa was 86.7 % of GpH7-A5/GpH7-B3/GpL16-k0.

B13: GpH7-A5/GpH7-B3 variant S267_09D/GpL16-k0 (He Ab) (antibody, human IgG1, kappa)
heavy 1: not shown
heavy 2: not shown
light: B1 light
notes: Anti-glypican-3 IgG1; mutation only in the GpH7-B3-derived H chain; also called S267D heterodimerized antibody
B13: the He/Con_2b in test [1] is 310 % of control GpH7-A5/GpH7-B3/GpL16-k0 (=100).

B14: GpH7-A5/GpH7-B3 variant S267_08L/GpL16-k0 (He Ab) (antibody, human IgG1, kappa)
heavy 1: not shown
heavy 2: not shown
light: B1 light
notes: Anti-glypican-3 IgG1; mutation only in the GpH7-B3-derived H chain; also called S267L heterodimerized antibody
As for B14, the He/Con_2b in test [1] was 109 % of control GpH7-A5/GpH7-B3/GpL16-k0 (=100).

B15: GpH7-A5/GpH7-B3 variant P271_08L/GpL16-k0 (He Ab) (antibody, human IgG1, kappa)
heavy 1: not shown
heavy 2: not shown
light: B1 light
notes: Anti-glypican-3 IgG1; mutation only in the GpH7-B3-derived H chain; also called P271L heterodimerized antibody
On to B15, for which the He/Con_2b in test [1] is 103 % of control GpH7-A5/GpH7-B3/GpL16-k0 (=100).

B16: GpH7-A5/GpH7-B3 variant Y300_19Q/GpL16-k0 (He Ab) (antibody, human IgG1, kappa)
heavy 1: not shown
heavy 2: not shown
light: B1 light
notes: Anti-glypican-3 IgG1; mutation only in the GpH7-B3-derived H chain; also called Y300Q heterodimerized antibody
Take B16: in test [1], the He/Con_2b is 108 % of control GpH7-A5/GpH7-B3/GpL16-k0 (=100).

B17: GpH7-A5/GpH7-B3 variant K334_16H/GpL16-k0 (He Ab) (antibody, human IgG1, kappa)
heavy 1: not shown
heavy 2: not shown
light: B1 light
notes: Anti-glypican-3 IgG1; mutation only in the GpH7-B3-derived H chain; also called K334H heterodimerized antibody
As to B17, in test [1], the He/Con_2b is 113 % of control GpH7-A5/GpH7-B3/GpL16-k0 (=100).

B18: GpH7-A5/GpH7-B3 variant L328_07I/GpL16-k0 (He Ab) (antibody, human IgG1, kappa)
heavy 1: not shown
heavy 2: not shown
light: B1 light
notes: Anti-glypican-3 IgG1; mutation only in the GpH7-B3-derived H chain; also called L328I heterodimerized antibody
In the case of B18, the He/Con_2b in test [1] was 160 % of control GpH7-A5/GpH7-B3/GpL16-k0 (=100).

B19: GpH7-A5/GpH7-B3 variant S239_07I/GpL16-k0 (He Ab) (antibody, human IgG1, kappa)
heavy 1: not shown
heavy 2: not shown
light: B1 light
notes: Anti-glypican-3 IgG1; mutation only in the GpH7-B3-derived H chain; also called S239I heterodimerized antibody
Turning to B19, in test [1], the He/Con_2b is 107 % of control GpH7-A5/GpH7-B3/GpL16-k0 (=100).

B20: GpH7-A5/GpH7-B3 variant S337_10E/GpL16-k0 (He Ab) (antibody, human IgG1, kappa)
heavy 1: not shown
heavy 2: not shown
light: B1 light
notes: Anti-glypican-3 IgG1; mutation only in the GpH7-B3-derived H chain; also called S337E heterodimerized antibody
Consider B20, for which, in test [1], the He/Con_2b was 107 % of control GpH7-A5/GpH7-B3/GpL16-k0 (=100).

B21: GpH7-A5/GpH7-B3 variant T335_09D/GpL16-k0 (He Ab) (antibody, human IgG1, kappa)
heavy 1: not shown
heavy 2: not shown
light: B1 light
notes: Anti-glypican-3 IgG1; mutation only in the GpH7-B3-derived H chain; also called T335D heterodimerized antibody
With B21, the He/Con_2b in test [1] was 108 % of control GpH7-A5/GpH7-B3/GpL16-k0 (=100).

B22: GpH7-A5/GpH7-B3 variant S267_07I/GpL16-k0 (He Ab) (antibody, human IgG1, kappa)
heavy 1: not shown
heavy 2: not shown
light: B1 light
notes: Anti-glypican-3 IgG1; mutation only in the GpH7-B3-derived H chain; also called S267I heterodimerized antibody
Consider B22, for which the He/Con_2b in test [1] is 192 % of control GpH7-A5/GpH7-B3/GpL16-k0 (=100).

B23: GpH7-A5/GpH7-B3 variant P331_04F/GpL16-k0 (He Ab) (antibody, human IgG1, kappa)
heavy 1: not shown
heavy 2: not shown
light: B1 light
notes: Anti-glypican-3 IgG1; mutation only in the GpH7-B3-derived H chain; also called P331F heterodimerized antibody
For B23, the He/Con_2b in test [1] is 110 % of control GpH7-A5/GpH7-B3/GpL16-k0 (=100).

B24: GpH7-A5/GpH7-B3 variant S267_03V/GpL16-k0 (He Ab) (antibody, human IgG1, kappa)
heavy 1: not shown
heavy 2: not shown
light: B1 light
notes: Anti-glypican-3 IgG1; mutation only in the GpH7-B3-derived H chain; also called S267V heterodimerized antibody
As to B24, the He/Con_2b in test [1] is 192 % of control GpH7-A5/GpH7-B3/GpL16-k0 (=100).
